T1: IMMT (human, UniProt Q16891-4 34-757, limits assumed)
T1 construct: also called NP_001093639.1 (+3)
T1 sequence (looked up): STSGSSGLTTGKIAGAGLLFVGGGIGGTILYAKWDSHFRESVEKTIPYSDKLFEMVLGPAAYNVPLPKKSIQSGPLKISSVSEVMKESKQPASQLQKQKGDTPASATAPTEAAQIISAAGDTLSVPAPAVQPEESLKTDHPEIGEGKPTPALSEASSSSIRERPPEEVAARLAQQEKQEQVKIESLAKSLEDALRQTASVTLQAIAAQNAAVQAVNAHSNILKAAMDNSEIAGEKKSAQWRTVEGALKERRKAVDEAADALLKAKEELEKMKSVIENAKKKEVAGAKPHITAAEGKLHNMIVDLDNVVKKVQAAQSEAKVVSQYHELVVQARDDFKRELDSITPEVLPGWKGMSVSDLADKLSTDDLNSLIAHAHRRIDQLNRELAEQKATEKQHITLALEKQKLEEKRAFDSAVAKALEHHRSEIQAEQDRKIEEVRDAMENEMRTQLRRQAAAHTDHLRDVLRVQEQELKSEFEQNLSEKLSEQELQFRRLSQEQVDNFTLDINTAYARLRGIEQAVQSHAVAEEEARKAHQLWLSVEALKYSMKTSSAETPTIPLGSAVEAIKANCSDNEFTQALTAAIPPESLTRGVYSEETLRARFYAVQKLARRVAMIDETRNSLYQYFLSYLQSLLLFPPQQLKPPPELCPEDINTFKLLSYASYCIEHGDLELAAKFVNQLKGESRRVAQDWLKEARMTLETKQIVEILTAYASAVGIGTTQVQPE

T2: JUP (human, UniProt P14923 1-745)
T2 construct: also called NP_001339702.1
T2 sequence (looked up): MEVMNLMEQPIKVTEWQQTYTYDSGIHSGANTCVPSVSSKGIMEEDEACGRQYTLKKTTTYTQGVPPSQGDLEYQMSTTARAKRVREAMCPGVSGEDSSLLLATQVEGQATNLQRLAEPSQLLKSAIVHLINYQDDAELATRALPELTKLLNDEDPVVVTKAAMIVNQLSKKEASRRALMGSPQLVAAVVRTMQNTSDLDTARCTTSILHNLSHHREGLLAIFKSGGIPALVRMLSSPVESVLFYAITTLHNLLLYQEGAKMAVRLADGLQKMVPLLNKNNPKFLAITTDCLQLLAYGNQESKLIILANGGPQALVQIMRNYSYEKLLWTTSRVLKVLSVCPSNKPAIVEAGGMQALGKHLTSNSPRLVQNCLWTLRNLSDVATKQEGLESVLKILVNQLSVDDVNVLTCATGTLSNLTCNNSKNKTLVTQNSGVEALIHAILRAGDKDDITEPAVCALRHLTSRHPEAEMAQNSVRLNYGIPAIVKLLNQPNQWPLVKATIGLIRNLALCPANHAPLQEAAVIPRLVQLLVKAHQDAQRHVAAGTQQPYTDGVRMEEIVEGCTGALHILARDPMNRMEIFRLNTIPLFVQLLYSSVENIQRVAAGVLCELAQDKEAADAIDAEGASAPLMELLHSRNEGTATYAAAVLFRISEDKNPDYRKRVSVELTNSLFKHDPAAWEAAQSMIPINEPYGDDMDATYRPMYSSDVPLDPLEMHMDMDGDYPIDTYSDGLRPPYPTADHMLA


How the values were obtained:
Assay in all cases: co-IP with anti-FLAG, C-FLAG B3GNT2, mass spectrometry
[1] = biological target: T1, IMMT
Protocol: (§1) Cells were plated in 10-cm cell culture dishes and grown to 60-80% confluency. For each condition, two biological replicates were harvested for co-IP. Cells were washed with PBS and 4 mL of lysis buffer (20 mM HEPES, 1% Triton X-100, 150 mM NaCl, 1 mM EDTA, and 10% glycerol) containing protease inhibitor cocktail was added. Cells were scraped and lysate was incubated at 4° C. under rotary agitation for 1 h. Lysate was centrifuged at 14,000×g for 10 min at 4° C. Supernatant was transferred to a new tube and an aliquot was taken as the input. […] For Western blots, 10 μg/mL Chicken Anti-FLAG (Aves labs ET-DY100) and IgY control (R&D Systems AB-101-C) antibodies were biotinylated (Thermo Fisher Scientific 90407) and added to the respective conditions. Lysates with antibodies were incubated at 4° C. under rotary agitation overnight. For each mL of lysate, 50 μL of Pierce Protein A/G Magnetic Beads (Mass spectrometry; Thermo Fisher Scientific 88803) or Pierce Streptavidin Magnetic Beads (Western blot; Thermo Fisher Scientific 88817) was washed twice with lysis buffer. Lysates with antibodies were added to the beads and incubated at 4° C. under rotary agitation for 4 h. Beads were washed with lysis buffer 3 times and resuspended in lysis buffer for storage.
(§2) Magnetic beads were resuspended in 100 mM Tris pH 7.8, reduced, alkylated and digested with trypsin at 37° ° C. overnight. This solution was subjected to solid phase extraction to concentrate the peptides and remove unwanted reagents followed by injection onto a Shimadzu HPLC with fraction collector. Eight fractions were collected and after concentration were injected on a Waters NanoAcquity HPLC equipped with a self-packed Aeris 3 μm C18 analytical column 0.075 mm by 20 cm, (Phenomenex). Peptides were eluted using standard reverse-phase gradients. The effluent from the column was analyzed using a Thermo Orbitrap Elite mass spectrometer (nanospray configuration) operated in a data dependent manner for 54 minutes. The resulting fragmentation spectra were correlated against the known database using Proteome Discover 1.4 (Thermo Fisher Scientific).

[2] = biological target: RPL23 (human, UniProt P62829 1-140)
Protocol: as §1, §2

[3] = biological target: T3, DDX3X (human, UniProt O00571 2-662)
T3 construct: also called NP_001180345.1 (+1)
Protocol: as §1, §2

[4] = biological target: T4, PSMB5 (human, UniProt P28074 60-263)
T4 construct: also called NP_002788.1
Protocol: as §1, §2

[5] = biological target: T2, JUP
Protocol: as §1, §2

T3 sequence (O00571 2-662 limits assumed): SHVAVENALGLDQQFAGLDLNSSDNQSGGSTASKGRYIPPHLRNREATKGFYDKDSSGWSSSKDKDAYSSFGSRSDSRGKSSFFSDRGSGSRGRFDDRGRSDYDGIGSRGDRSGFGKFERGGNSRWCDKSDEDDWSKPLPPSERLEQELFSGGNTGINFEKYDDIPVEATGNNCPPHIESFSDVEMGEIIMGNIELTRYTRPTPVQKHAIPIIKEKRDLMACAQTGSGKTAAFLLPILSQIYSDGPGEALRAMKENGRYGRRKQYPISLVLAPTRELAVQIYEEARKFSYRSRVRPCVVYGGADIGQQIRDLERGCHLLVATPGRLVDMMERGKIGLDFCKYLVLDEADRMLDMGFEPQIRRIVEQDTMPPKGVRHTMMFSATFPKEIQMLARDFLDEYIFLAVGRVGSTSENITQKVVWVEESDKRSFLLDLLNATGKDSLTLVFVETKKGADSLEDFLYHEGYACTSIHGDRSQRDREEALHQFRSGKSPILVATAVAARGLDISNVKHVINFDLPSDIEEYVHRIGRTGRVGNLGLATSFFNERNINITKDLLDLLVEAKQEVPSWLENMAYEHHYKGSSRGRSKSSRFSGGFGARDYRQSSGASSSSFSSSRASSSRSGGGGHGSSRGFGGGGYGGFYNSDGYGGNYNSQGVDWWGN
T4 sequence (P28074 60-263 limits assumed): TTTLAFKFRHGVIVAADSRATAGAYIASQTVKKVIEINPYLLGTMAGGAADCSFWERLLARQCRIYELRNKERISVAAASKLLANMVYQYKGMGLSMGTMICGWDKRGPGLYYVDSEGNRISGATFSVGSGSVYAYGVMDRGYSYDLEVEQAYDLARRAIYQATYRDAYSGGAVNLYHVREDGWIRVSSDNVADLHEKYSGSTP

Binder	co-IP mass spectrometry count [1]	co-IP mass spectrometry count [2]	co-IP/MS count, C-term flag [3]	co-IP/MS count, C-term flag [4]	co-IP/MS count, C-term flag [5]
C-terminal FLAG tagged B3GNT2 (enzyme, human, UniProt Q9NY97 1-397, looked up, FLAG-tagged ORF overexpressed in cells; pulled down from lysate with mouse anti-FLAG; also called C-FLAG B3GNT2; C-term flag; not shown: C-terminal FLAG tag) MSVGRRRIKLLGILMMANVFIYFIMEVSKSSSQEKNGKGEVIIPKEKFWKISTPPEAYWNREQEKLNRQYNPILSMLTNQTGEAGRLSNISHLNYCEPDLRVTSVVTGFNNLPDRFKDFLLYLRCRNYSLLIDQPDKCAKKPFLLLAIKSLTPHFARRQAIRESWGQESNAGNQTVVRVFLLGQTPPEDNHPDLSDMLKFESEKHQDILMWNYRDTFFNLSLKEVLFLRWVSTSCPDTEFVFKGDDDVFVNTHHILNYLNSLSKTKAKDLFIGDVIHNAGPHRDKKLKYYIPEVVYSGLYPPYAGGGGFLYSGHLALRLYHITDQVHLYPIDDVYTGMCLQKLGLVPEKHKGFRTFDIEEKNKNNICSYVDLMLVHSRKPQEMIDIWSQLQSAHLKC	26	6			
C-terminal FLAG tagged B3GNT2 (enzyme, human, UniProt Q9NY97 1-397, looked up, FLAG-tagged ORF overexpressed in A375 cells; pulled down from the lysate with mouse anti-FLAG; also called C-FLAG B3GNT2; C-term flag; not shown: C-terminal FLAG tag) MSVGRRRIKLLGILMMANVFIYFIMEVSKSSSQEKNGKGEVIIPKEKFWKISTPPEAYWNREQEKLNRQYNPILSMLTNQTGEAGRLSNISHLNYCEPDLRVTSVVTGFNNLPDRFKDFLLYLRCRNYSLLIDQPDKCAKKPFLLLAIKSLTPHFARRQAIRESWGQESNAGNQTVVRVFLLGQTPPEDNHPDLSDMLKFESEKHQDILMWNYRDTFFNLSLKEVLFLRWVSTSCPDTEFVFKGDDDVFVNTHHILNYLNSLSKTKAKDLFIGDVIHNAGPHRDKKLKYYIPEVVYSGLYPPYAGGGGFLYSGHLALRLYHITDQVHLYPIDDVYTGMCLQKLGLVPEKHKGFRTFDIEEKNKNNICSYVDLMLVHSRKPQEMIDIWSQLQSAHLKC			23	0	43

From patent publication US20240261333A1 (published 2024)
